Measurements reported in the Human Domainome abundance scans (Beltran et al. 2025).
± gives the uncertainty stated by the source.

Experiment: abundance fitness (aPCA) (normalised: wild type 0, dead -1); higher = more abundant; growth selection in yeast, the domain comes from the species named
Conditions: Homo sapiens

Substance	abundance fitness
DnaJ homolog subfamily B member 1 E42N, P25685	0.027 ± 0.13
DnaJ homolog subfamily B member 1 E42P, P25685	0.028 ± 0.087
DnaJ homolog subfamily B member 1 E42Q, P25685	-0.157 ± 0.12
DnaJ homolog subfamily B member 1 E42R, P25685	0.024 ± 0.058
DnaJ homolog subfamily B member 1 E42S, P25685	-0.016 ± 0.065
DnaJ homolog subfamily B member 1 E42T, P25685	-0.052 ± 0.093
DnaJ homolog subfamily B member 1 E42W, P25685	-0.122 ± 0.11
DnaJ homolog subfamily B member 1 E42Y, P25685	-0.188 ± 0.1
DnaJ homolog subfamily B member 1 E43A, P25685	0.025 ± 0.13
DnaJ homolog subfamily B member 1 E43C, P25685	-0.07 ± 0.2
DnaJ homolog subfamily B member 1 E43D, P25685	-0.153 ± 0.14
DnaJ homolog subfamily B member 1 E43F, P25685	-0.093 ± 0.19
DnaJ homolog subfamily B member 1 E43G, P25685	0.009 ± 0.074
DnaJ homolog subfamily B member 1 E43I, P25685	0.109 ± 0.12
DnaJ homolog subfamily B member 1 E43K, P25685	0.156 ± 0.1
DnaJ homolog subfamily B member 1 E43L, P25685	0.105 ± 0.066
DnaJ homolog subfamily B member 1 E43N, P25685	-0.003 ± 0.21
DnaJ homolog subfamily B member 1 E43P, P25685	-0.177 ± 0.13
DnaJ homolog subfamily B member 1 E43Q, P25685	0.086 ± 0.1
DnaJ homolog subfamily B member 1 E43R, P25685	0.11 ± 0.051
DnaJ homolog subfamily B member 1 E43S, P25685	-0.014 ± 0.092
DnaJ homolog subfamily B member 1 E43T, P25685	-0.109 ± 0.12
DnaJ homolog subfamily B member 1 E43V, P25685	0.112 ± 0.062
DnaJ homolog subfamily B member 1 E43W, P25685	-0.043 ± 0.069
DnaJ homolog subfamily B member 1 E43Y, P25685	0.196 ± 0.32
DnaJ homolog subfamily B member 1 E47A, P25685	0.021 ± 0.088

Substance	abundance fitness
DnaJ homolog subfamily B member 1 E47C, P25685	-0.218 ± 0.095
DnaJ homolog subfamily B member 1 E47D, P25685	-0.073 ± 0.13
DnaJ homolog subfamily B member 1 E47F, P25685	-0.277 ± 0.098
DnaJ homolog subfamily B member 1 E47G, P25685	-0.054 ± 0.076
DnaJ homolog subfamily B member 1 E47H, P25685	-0.009 ± 0.11
DnaJ homolog subfamily B member 1 E47K, P25685	-0.43 ± 0.12
DnaJ homolog subfamily B member 1 E47M, P25685	-0.186 ± 0.096
DnaJ homolog subfamily B member 1 E47N, P25685	0.333 ± 0.21
DnaJ homolog subfamily B member 1 E47P, P25685	-0.212 ± 0.088
DnaJ homolog subfamily B member 1 E47Q, P25685	-0.153 ± 0.1
DnaJ homolog subfamily B member 1 E47R, P25685	-0.071 ± 0.068
DnaJ homolog subfamily B member 1 E47S, P25685	-0.099 ± 0.072
DnaJ homolog subfamily B member 1 E47T, P25685	-0.118 ± 0.068
DnaJ homolog subfamily B member 1 E47V, P25685	-0.295 ± 0.088
DnaJ homolog subfamily B member 1 E50A, P25685	-0.241 ± 0.11
DnaJ homolog subfamily B member 1 E50C, P25685	-0.311 ± 0.095
DnaJ homolog subfamily B member 1 E50D, P25685	-0.074 ± 0.087
DnaJ homolog subfamily B member 1 E50F, P25685	-0.612 ± 0.19
DnaJ homolog subfamily B member 1 E50G, P25685	-0.326 ± 0.13
DnaJ homolog subfamily B member 1 E50H, P25685	-0.222 ± 0.17
DnaJ homolog subfamily B member 1 E50I, P25685	-0.011 ± 0.1
DnaJ homolog subfamily B member 1 E50L, P25685	-0.026 ± 0.052
DnaJ homolog subfamily B member 1 E50M, P25685	-0.181 ± 0.12
DnaJ homolog subfamily B member 1 E50N, P25685	-0.328 ± 0.1
DnaJ homolog subfamily B member 1 E50P, P25685	-0.885 ± 0.18
DnaJ homolog subfamily B member 1 E50Q, P25685	-0.177 ± 0.082

Substance	abundance fitness
DnaJ homolog subfamily B member 1 E50R, P25685	-0.036 ± 0.062
DnaJ homolog subfamily B member 1 E50S, P25685	-0.211 ± 0.066
DnaJ homolog subfamily B member 1 E50V, P25685	-0.085 ± 0.078
DnaJ homolog subfamily B member 1 E50W, P25685	-0.34 ± 0.11
DnaJ homolog subfamily B member 1 E50Y, P25685	-0.096 ± 0.12
DnaJ homolog subfamily B member 1 E62C, P25685	-0.361 ± 0.14
DnaJ homolog subfamily B member 1 E62D, P25685	-0.31 ± 0.13
DnaJ homolog subfamily B member 1 E62F, P25685	-0.519 ± 0.12
DnaJ homolog subfamily B member 1 E62G, P25685	-0.272 ± 0.15
DnaJ homolog subfamily B member 1 E62H, P25685	-0.351 ± 0.081
DnaJ homolog subfamily B member 1 E62I, P25685	-0.378 ± 0.14
DnaJ homolog subfamily B member 1 E62M, P25685	-0.32 ± 0.11
DnaJ homolog subfamily B member 1 E62N, P25685	-0.567 ± 0.28
DnaJ homolog subfamily B member 1 E62P, P25685	-0.134 ± 0.079
DnaJ homolog subfamily B member 1 E62Q, P25685	-0.353 ± 0.12
DnaJ homolog subfamily B member 1 E62R, P25685	-0.344 ± 0.095
DnaJ homolog subfamily B member 1 E62S, P25685	-0.212 ± 0.077
DnaJ homolog subfamily B member 1 E62V, P25685	-0.218 ± 0.12
DnaJ homolog subfamily B member 1 E62W, P25685	-0.626 ± 0.096
DnaJ homolog subfamily B member 1 E62Y, P25685	-0.552 ± 0.22
DnaJ homolog subfamily B member 1 F45A, P25685	-0.21 ± 0.076
DnaJ homolog subfamily B member 1 F45C, P25685	-0.351 ± 0.12
DnaJ homolog subfamily B member 1 F45D, P25685	-0.352 ± 0.076
DnaJ homolog subfamily B member 1 F45E, P25685	-0.277 ± 0.095
DnaJ homolog subfamily B member 1 F45G, P25685	-0.247 ± 0.089
DnaJ homolog subfamily B member 1 F45H, P25685	-0.096 ± 0.17

Substance	abundance fitness
DnaJ homolog subfamily B member 1 F45I, P25685	-0.158 ± 0.07
DnaJ homolog subfamily B member 1 F45K, P25685	-0.444 ± 0.16
DnaJ homolog subfamily B member 1 F45L, P25685	-0.21 ± 0.055
DnaJ homolog subfamily B member 1 F45M, P25685	-0.305 ± 0.092
DnaJ homolog subfamily B member 1 F45N, P25685	-0.221 ± 0.1
DnaJ homolog subfamily B member 1 F45P, P25685	-0.508 ± 0.072
DnaJ homolog subfamily B member 1 F45Q, P25685	-0.211 ± 0.11
DnaJ homolog subfamily B member 1 F45R, P25685	-0.185 ± 0.062
DnaJ homolog subfamily B member 1 F45S, P25685	-0.143 ± 0.085
DnaJ homolog subfamily B member 1 F45T, P25685	-0.281 ± 0.075
DnaJ homolog subfamily B member 1 F45V, P25685	-0.306 ± 0.061
DnaJ homolog subfamily B member 1 F45W, P25685	0 ± 0.099
DnaJ homolog subfamily B member 1 F45Y, P25685	-0.178 ± 0.17
DnaJ homolog subfamily B member 1 F64A, P25685	-0.361 ± 0.3
DnaJ homolog subfamily B member 1 F64Q, P25685	-0.344 ± 0.28
DnaJ homolog subfamily B member 1 F64S, P25685	-0.109 ± 0.23
DnaJ homolog subfamily B member 1 F64Y, P25685	0.009 ± 0.48
DnaJ homolog subfamily B member 1 G10C, P25685	-0.587 ± 0.26
DnaJ homolog subfamily B member 1 G10D, P25685	-0.141 ± 0.074
DnaJ homolog subfamily B member 1 G10E, P25685	0.073 ± 0.2
DnaJ homolog subfamily B member 1 G10F, P25685	-0.542 ± 0.13
DnaJ homolog subfamily B member 1 G10H, P25685	-0.378 ± 0.14
DnaJ homolog subfamily B member 1 G10I, P25685	-0.756 ± 0.19
DnaJ homolog subfamily B member 1 G10K, P25685	-0.108 ± 0.1
DnaJ homolog subfamily B member 1 G10L, P25685	-0.223 ± 0.058
